The values below are quoted from earlier work in publication PMC11070850.

This data set addresses mucin 1 (UniProt P15941). The conditions noted are these: 10 mM MOPS, 100 mM NaNO3, pH 7.6, room temperature, 60 min (aptamer + mucin 1 + DNA nanospheres); then CuSO4 50 min and calcein 2 min.

Sequence of mucin 1 (P15941 24-1158): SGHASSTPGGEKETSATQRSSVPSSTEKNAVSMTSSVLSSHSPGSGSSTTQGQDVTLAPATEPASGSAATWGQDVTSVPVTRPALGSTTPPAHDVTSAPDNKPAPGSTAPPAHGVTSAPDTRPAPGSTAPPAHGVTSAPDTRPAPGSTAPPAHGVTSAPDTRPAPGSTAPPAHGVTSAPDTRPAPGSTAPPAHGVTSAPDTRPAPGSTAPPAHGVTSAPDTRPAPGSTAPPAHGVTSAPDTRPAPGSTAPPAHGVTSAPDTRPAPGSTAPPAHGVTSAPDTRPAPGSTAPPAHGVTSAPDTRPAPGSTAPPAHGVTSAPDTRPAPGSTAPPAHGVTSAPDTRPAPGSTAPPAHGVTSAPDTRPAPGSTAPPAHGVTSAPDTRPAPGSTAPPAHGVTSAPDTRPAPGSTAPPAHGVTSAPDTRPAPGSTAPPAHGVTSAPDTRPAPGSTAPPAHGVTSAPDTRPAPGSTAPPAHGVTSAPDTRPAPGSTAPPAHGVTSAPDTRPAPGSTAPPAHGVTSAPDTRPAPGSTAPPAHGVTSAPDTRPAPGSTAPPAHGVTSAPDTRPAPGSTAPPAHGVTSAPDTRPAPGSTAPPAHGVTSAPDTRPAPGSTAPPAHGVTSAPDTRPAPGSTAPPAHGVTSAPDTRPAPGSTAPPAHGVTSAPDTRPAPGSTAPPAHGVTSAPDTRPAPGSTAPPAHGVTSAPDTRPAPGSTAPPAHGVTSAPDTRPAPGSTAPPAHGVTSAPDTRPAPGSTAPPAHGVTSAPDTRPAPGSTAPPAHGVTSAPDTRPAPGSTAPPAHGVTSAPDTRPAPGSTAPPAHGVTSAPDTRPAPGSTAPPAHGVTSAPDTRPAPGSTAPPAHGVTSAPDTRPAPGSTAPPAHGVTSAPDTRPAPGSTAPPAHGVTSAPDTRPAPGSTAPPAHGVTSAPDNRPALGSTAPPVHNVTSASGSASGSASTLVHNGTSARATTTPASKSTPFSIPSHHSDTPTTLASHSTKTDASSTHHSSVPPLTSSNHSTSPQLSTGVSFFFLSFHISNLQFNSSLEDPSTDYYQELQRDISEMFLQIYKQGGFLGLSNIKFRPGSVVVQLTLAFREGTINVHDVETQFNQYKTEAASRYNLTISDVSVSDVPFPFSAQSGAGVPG

For orientation: Kd means the equilibrium constant for the complex coming apart. Consider “GCAGTTGATCCTTTGGATACCCTGG [mucin 1 aptamer]”, for which the Kd is 0.135 nM.
